Reference: the supplement of paper PMC10126150
± gives the standard deviation of the averaged measurements.

Tested on: ATP
Test: switch fluorescence ratio, 500 uM ATP over buffer (Cy3 cluster intensity, sum of 5 cycles each) (fold (ratio)); higher = stronger signal-on switching upon ATP binding; sequences stand for … in TCGTCGGCAGCGTCAGATGTGTATAAGAGACAGTTTTTTTTTTTTTTTTTTTTTTTTT…TC
Conditions: aptamer strand: ATP DNA aptamer (quencher-CACCTGGGGGAGTATTGCGGAGGAAGG + anchor), 100 nM annealed; ATP concentration: 500 uM
Summary of the method: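 Clusters carrying Cy3-labelled switching strands on a modified Illumina MiSeq flow-cell were annealed to 100 nM quencher-labelled ATP aptamer and imaged in selection buffer. They were imaged again after 15 min with 500 uM ATP at 22 °C, over five buffer/ATP cycles with NaOH stripping and re-annealing in between. For each cluster, the fluorescence ratio is the summed Cy3 intensity of the target cycles divided by that of the buffer cycles, averaged per switch-domain sequence. Clusters outside 100-1000 RFU were left out.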
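Further: ATP exposure 15 min at 22 °C before imaging.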

Sequence | switch fluorescence ratio
TTTAGCCCTT | 1.01 ± 0.037
TTTAGCGGAT | 1.02 ± 0.019
TTTAGCTGGG | 1.01 ± 0.019
TTTAGCTGGT | 0.986 ± 0.033
TTTAGCTTAA | 0.986 ± 0.021
TTTAGGACAG | 1.01 ± 0.011
TTTAGGCATG | 0.9966 ± 0.0076
TTTAGGGACG | 0.955 ± 0.14
TTTAGGGGG | 1.04 ± 0.067
TTTAGGGGTA | 0.996 ± 0.018
TTTAGGGGTC | 0.981 ± 0.024
TTTAGGGTGG | 1.01 ± 0.012
TTTAGGTACG | 1 ± 0.018
TTTAGGTAGG | 1 ± 0.02
TTTAGGTATG | 0.987 ± 0.03
TTTAGGTTCC | 1.015 ± 0.005
TTTAGTACTG | 1.05 ± 0.032
TTTAGTAGGG | 1 ± 0.027
TTTAGTCTGC | 0.993 ± 0.018
TTTAGTGAG | 1.02 ± 0.011
TTTAGTGGGT | 0.984 ± 0.026
TTTAGTGTGG | 1.02 ± 0.044
TTTAGTTAAG | 0.945 ± 0.038
TTTAGTTCGG | 0.998 ± 0.027
TTTAGTTTGG | 1 ± 0.031

Sequence | switch fluorescence ratio
TTTATAACCT | 1.7 ± 0.61
TTTATAAGGG | 0.995 ± 0.013
TTTATACGGG | 1.02 ± 0.039
TTTATACGT | 0.9783 ± 0.0067
TTTATAGGGT | 1 ± 0.032
TTTATAGGT | 0.9713 ± 0.0062
TTTATAGTAT | 0.993 ± 0.03
TTTATAGTTA | 0.979 ± 0.039
TTTATATACG | 0.991 ± 0.017
TTTATATATA | 1.005 ± 0.0095
TTTATATATG | 1 ± 0.024
TTTATATATT | 1.01 ± 0.028
TTTATATC | 1.07 ± 0.11
TTTATATGAG | 0.999 ± 0.044
TTTATATTCG | 0.989 ± 0.033
TTTATCAACG | 1.046 ± 0.0027
TTTATCGATT | 0.991 ± 0.036
TTTATCTGTG | 0.954 ± 0.019
TTTATCTTGT | 0.9852 ± 0.0016
TTTATCTTTG | 1 ± 0.027
TTTATGAGAT | 1 ± 0.027
TTTATGATTA | 1.035 ± 0.005
TTTATGGCGT | 1.008 ± 0.0097
TTTATGGCTT | 1.01 ± 0.046
TTTATGGGAC | 0.999 ± 0.052

Sequence | switch fluorescence ratio
TTTATGGGCA | 1.04 ± 0.05
TTTATGGGTT | 0.985 ± 0.018
TTTATGTAAG | 0.988 ± 0.065
TTTATGTACG | 0.985 ± 0.054
TTTATGTTTG | 1.01 ± 0.035
TTTATTAACT | 1.06 ± 0.072
TTTATTAAGG | 1 ± 0.023
TTTATTAATC | 0.99544 ± 0.00085
TTTATTACAT | 0.996 ± 0.014
TTTATTAGGC | 0.996 ± 0.022
TTTATTCGTT | 0.9784 ± 0.0063
TTTATTCTG | 0.9873 ± 0.0064
TTTATTTAGG | 1.04 ± 0.011
TTTATTTCCT | 1.07 ± 0.04
TTTATTTTAA | 0.995 ± 0.028
TTTATTTTGC | 1.01 ± 0.036
TTTATTTTTA | 0.986 ± 0.019
TTTCAAAAGG | 1.01 ± 0.019
TTTCAAAAT | 1.035 ± 0.0037
TTTCAAGTTT | 1.16 ± 0.3
TTTCAATGTA | 1.01 ± 0.039
TTTCAATTAA | 1 ± 0.013
TTTCAATTGT | 1.02 ± 0.047
TTTCACAGCG | 1.01 ± 0.011
TTTCAGCGGG | 1 ± 0.018

Sequence | switch fluorescence ratio
TTTCAGGGCT | 1.22 ± 0.16
TTTCAGTATT | 1.01 ± 0.029
TTTCAGTTGG | 1.02 ± 0.015
TTTCATACGA | 1.01 ± 0.045
TTTCATACGG | 1.008 ± 0.0034
TTTCATCCAA | 1.42 ± 0.48
TTTCATGTCG | 0.986 ± 0.1
TTTCATGTTT | 0.9683 ± 0.007
TTTCATTGGG | 1.01 ± 0.032
TTTCATTTGG | 1.01 ± 0.03
TTTCCAAATG | 0.9847 ± 0.0059
TTTCCAAGAA | 1.03 ± 0.025
TTTCCATTGG | 1.03 ± 0.015
TTTCCATTGT | 0.995 ± 0.048
TTTCCCAGGT | 3.64 ± 2.7
TTTCCCCATT | 1.012 ± 0.0066
TTTCCCGTTG | 1.07 ± 0.12
TTTCCGAGGG | 1.43 ± 0.63
TTTCCGATGA | 1.08 ± 0.032
TTTCCGGGGT | 1.28 ± 0.31
TTTCCGTTTT | 1.01 ± 0.038
TTTCCTAACT | 1.04 ± 0.039
TTTCCTATAT | 1.08 ± 0.078
TTTCCTATTG | 1.01 ± 0.027
TTTCCTGGGT | 1.14 ± 0.18

Sequence | switch fluorescence ratio
TTTCCTGGTA | 0.9817 ± 0.0073
TTTCCTTGCC | 1.19 ± 0.024
TTTCCTTGTT | 1.09 ± 0.057
TTTCGACTGG | 0.996 ± 0.02
TTTCGAGGGG | 1.02 ± 0.054
TTTCGAGGGT | 1.006 ± 0.0034
TTTCGATCTC | 1.028 ± 0.0026
TTTCGCAACG | 1.09 ± 0.047
TTTCGCAGGT | 1.24 ± 0.15
TTTCGCTTTT | 1.03 ± 0.044
TTTCGGAAAC | 1.1 ± 0.017
TTTCGGAAAT | 1.01 ± 0.016
TTTCGGAGGA | 0.991 ± 0.018
TTTCGGCGCG | 1.02 ± 0.038
TTTCGGGATG | 1.01 ± 0.066
TTTCGGGGGA | 1.01 ± 0.032
TTTCGGGTAA | 1.34 ± 0.47
TTTCGGTCCC | 1.02 ± 0.021
TTTCGGTCGC | 1.003 ± 0.008
TTTCGGTGGC | 0.99 ± 0.072
TTTCGGTTTT | 1.04 ± 0.11
TTTCGTAGGA | 1.28 ± 0.35
TTTCGTGGGG | 0.992 ± 0.056
TTTCGTTCTT | 1.02 ± 0.03
TTTCTAAATC | 0.979 ± 0.01

Sequence | switch fluorescence ratio
TTTCTAAGTT | 1.03 ± 0.021
TTTCTAATGC | 1.03 ± 0.014
TTTCTAGGCA | 1.01 ± 0.03
TTTCTATTTG | 1.02 ± 0.029
TTTCTCATTC | 1.08 ± 0.12
TTTCTCCTTT | 1.04 ± 0.035
TTTCTCGATG | 1.011 ± 0.0072
TTTCTCGGAG | 1.08 ± 0.084
TTTCTGGAGA | 1.05 ± 0.05
TTTCTGGCGG | 1.02 ± 0.025
TTTCTGGGGG | 0.984 ± 0.019
TTTCTGTGGG | 0.986 ± 0.016
TTTCTGTGTT | 1.012 ± 0.0069
TTTCTTAATT | 1.4 ± 0.59
TTTCTTACGC | 1.07 ± 0.066
TTTCTTAGCT | 1.005 ± 0.0046
TTTCTTATGA | 0.971 ± 0.025
TTTCTTATTG | 1.031 ± 0.0085
TTTCTTGGGT | 1.04 ± 0.17
TTTCTTTAAA | 1.01 ± 0.019
TTTCTTTATT | 1.05 ± 0.063
TTTCTTTGAA | 0.977 ± 0.018
TTTGAAAAGT | 1.022 ± 0.0028
TTTGAAATTA | 0.9769 ± 0.003
TTTGAAGGAA | 0.986 ± 0.017

Sequence | switch fluorescence ratio
TTTGAAGGGG | 1.01 ± 0.035
TTTGAATAAG | 0.995 ± 0.023
TTTGACATTT | 1.02 ± 0.03
TTTGACCTGG | 0.981 ± 0.043
TTTGACGAAT | 1.012 ± 0.0081
TTTGACTTGT | 1.005 ± 0.0045
TTTGAGAGAT | 0.991 ± 0.029
TTTGAGATAC | 1.39 ± 0.38
TTTGAGATCT | 0.989 ± 0.027
TTTGAGATGG | 0.99 ± 0.024
TTTGAGCATA | 1.06 ± 0.042
TTTGAGCGTT | 1.01 ± 0.04
TTTGAGCTAT | 1.1 ± 0.029
TTTGAGGATT | 1 ± 0.027
TTTGAGTAAT | 1.027 ± 0.0017
TTTGAGTGAC | 1.01 ± 0.031
TTTGAGTGGG | 0.994 ± 0.025
TTTGATATGG | 0.999 ± 0.038
TTTGATCTTT | 1.01 ± 0.035
TTTGATGAGC | 1.01 ± 0.034
TTTGATGCCG | 0.973 ± 0.03
TTTGATGTTA | 0.981 ± 0.034
TTTGATTAT | 0.996 ± 0.012
TTTGATTTGT | 1.042 ± 0.0087
TTTGATTTTT | 0.984 ± 0.024

Sequence | switch fluorescence ratio
TTTGCAAAGT | 1.005 ± 0.0069
TTTGCAACAG | 0.986 ± 0.023
TTTGCACCCT | 1.03 ± 0.041
TTTGCAGCAT | 1.13 ± 0.22
TTTGCAGGCA | 1.03 ± 0.011
TTTGCAGGGC | 1.05 ± 0.012
TTTGCATCTC | 1.03 ± 0.044
TTTGCCACTT | 0.991 ± 0.011
TTTGCCAGGA | 0.997 ± 0.0063
TTTGCCATAG | 1.02 ± 0.022
TTTGCCTCGT | 1.04 ± 0.025
TTTGCGCGTT | 0.985 ± 0.018
TTTGCGCTCG | 0.968 ± 0.037
TTTGCTCGCC | 1.01 ± 0.04
TTTGCTGAAC | 1.065 ± 0.0086
TTTGCTTCCG | 1.1 ± 0.084
TTTGCTTTTA | 1.04 ± 0.023
TTTGGAAGGA | 0.998 ± 0.04
TTTGGAAGT | 0.991 ± 0.028
TTTGGAGGTT | 1.11 ± 0.2
TTTGGATAAA | 1.04 ± 0.049
TTTGGCAATT | 1.73 ± 0.57
TTTGGCCAGC | 0.975 ± 0.051
TTTGGCGATT | 0.962 ± 0.017
TTTGGCTAGT | 1.01 ± 0.019
